Laboratory results as given in patent US20090252732A1 (published 2009).
Substitutions are numbered along the chain they refer to.

Assays:
[1] = molecular target: T1, IL-31-CEE: purified, recombinant human IL-31 fused at the C-terminal with a peptide consisting of the … (human, UniProt Q6EBC2 24-164); experiment: capture ELISA: mAb of first round clone supernatant captured on anti-mouse IgG Fc, biotinylated IL-31-CEE
T1 construct: also called human IL-31-CEE; rIL31
T1 sequence: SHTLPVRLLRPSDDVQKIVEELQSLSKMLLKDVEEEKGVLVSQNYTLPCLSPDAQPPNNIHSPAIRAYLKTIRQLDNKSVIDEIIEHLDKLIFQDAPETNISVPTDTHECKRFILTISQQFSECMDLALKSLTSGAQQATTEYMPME
Protocol: These new supernatants were tested using the cell-based neutralization assay (serial 3-fold dilutions starting with neat supernatant and proceeding to a final 1:243 dilution) as well as a “capture” style ELISA assay similar to that used in the development of the rat anti-murine IL-31 mAbs with the following differences; 1) sheep anti-mouse IgG, Fc specific antibody (Jackson Immunoresearch) (1 ug/mL) as plate coating antibody, 2) plates blocked once with PBS-Tween+1% BSA for 1 hr, 3) a single titration of each supernatant added to wells (serial 3-fold dilutions starting with neat supernatant and proceeding to a final 1:2187 dilution), and 4) addition of biotinylated IL-31-CEE (3:1 molar ratio of biotin:protein), 200 ng/mL. This assay was felt to be more pertinent than the binding of antibody to plate bound IL-31-CEE as it assessed the ability of antibody to bind to IL-31-CEE in solution, a property essential to a good antibody for sandwich style ELISAs. It was in fact observed that a number of the master wells supernatants containing antibody that bound well to plate bound IL-31-CEE poorly recognized this molecule in solution.
To reduce the number of hybridomas going into further subcloning, two new assays were performed with exhausted supernatant from each of the selected first round clones. […]

[2] = molecular target: T2, CEE peptide tag, sequence EYMPME; experiment: ELISA on plate bound mIL-31-CEE (tag tested as part of that protein)
T2 construct: Tested only as the C-terminal tag of the other species' IL-31-CEE, not as a free peptide; also called CEE tag
T2 peptide: EYMPME

[3] = molecular target: T3, mIL31-CEE: purified, recombinant mouse IL-31 (produced in BHK cells) fused at the C-terminus with a peptide … (mouse, UniProt Q6EAL8 31-163); experiment: ELISA on plate bound mIL-31-CEE, first round clone supernatant
T3 construct: Biotinylated in the capture ELISA
T3 sequence: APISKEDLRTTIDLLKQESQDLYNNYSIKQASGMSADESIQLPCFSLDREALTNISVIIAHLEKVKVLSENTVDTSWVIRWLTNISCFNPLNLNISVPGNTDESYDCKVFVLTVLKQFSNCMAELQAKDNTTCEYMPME

[4] = molecular target: T1, IL-31-CEE: purified, recombinant human …; experiment: cell-based or functional assay

B1: mouse anti-human IL-31 mAb from clone 294.144.3.5 (ATCC Patent Deposit Designation PTA-6873) (antibody, mouse IgG1, V domains shown)
VH: QVQLQQSGPELMKPGASVKISCKATGYTFSTYWIEWIKQRPGHGLEWIGEILPGRGTTNYNAKFQGKATFTAETSSNTAYMQLSSLTSEDSAVYYCTTESKLGDDDYWQGTTLTVSS
VL: ENVLTQSPAIMSASPGERVTMTCSASSSVSYMHWYQQKSSNSPKLWIYDTTKLASGVPGRFSGSGSGNSYSLTISSMEAEDVATYFCFQGSEHPLTFGGGTTLEI
notes: Mouse IgG1
[1]
  EC50: 13.4 ng/mL
[2]
  binding result: no binding
[3]
  binding result: no binding

B2: mouse anti-human IL-31 mAb from clone 292.51.5.2 (antibody, mouse IgG1, V domains shown)
VH: EVQLVESGGDLVKPGGSLKLSCAASGFTFSSFVMSWVRQSPEKRLEWVATINSGGYYSFHPDSVKGRFTISRDNAKNTLYLQMSSLRSEDTAIYYCARQEGWSSAYFSYWGQGTLVTVSA
VL: DIVMTQSPSSLAMSVGQKVTMICKSSQSLLNSSNQKNYLAWYQQKPGHSPKLLVSFTSTRESGVPDRFIGSGSGTDFTLTITNMQAEDLADYFCQQHYDTPYTFGGGTKLEIR
notes: Mouse IgG1; assays used first round clone 292.51.5
[2]
  binding result: no binding
[4]
  IC50 (ng/mL), cell-based neutralization (luciferase), IL-31-CEE at 300 pg/mL: 6.48 ng/mL
  IC50 (pM), cell-based neutralization (luciferase), IL-31-CEE at 300 pg/mL: 43.2 pM
[3]
  binding result: no binding

B3: mouse anti-human IL-31 mAb from clone 292.105.4.1 (antibody, mouse IgG1, V domains shown)
VH: EVQLVESGGDLVKPGGSLKLSCAASGFTFSTYIMSWVRQSPEKRLEWVATINSGGYYTLYPDSVKGRFTISRDNAKNTLSLQLSSLRSEDTAMYFCARQEGWSSAWFAYWGQGTLVTVSA
VL: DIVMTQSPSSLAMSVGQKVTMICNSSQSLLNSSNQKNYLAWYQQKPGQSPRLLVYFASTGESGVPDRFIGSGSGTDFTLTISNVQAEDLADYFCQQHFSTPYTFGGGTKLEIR
notes: Mouse IgG1; assays used first round clone 292.105.4
[2]
  binding result: no binding
[4]
  IC50 (ng/mL), cell-based neutralization (luciferase), IL-31-CEE at 300 pg/mL: 9.14 ng/mL
  IC50 (pM), cell-based neutralization (luciferase), IL-31-CEE at 300 pg/mL: 61 pM
[3]
  binding result: no binding

B4: mouse anti-human IL-31 mAb from clone 292.109.4.4 (antibody, mouse IgG1, V domains shown)
VH: B3 VH
VL: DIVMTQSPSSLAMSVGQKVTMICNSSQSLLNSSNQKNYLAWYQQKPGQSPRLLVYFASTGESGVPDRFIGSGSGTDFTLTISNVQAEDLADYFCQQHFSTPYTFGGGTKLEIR
notes: Mouse IgG1; assays used first round clone 292.109.4
[2]
  binding result: no binding
[4]
  IC50 (ng/mL), cell-based neutralization (luciferase), IL-31-CEE at 300 pg/mL: 8.29 ng/mL
  IC50 (pM), cell-based neutralization (luciferase), IL-31-CEE at 300 pg/mL: 55.2 pM
[3]
  binding result: no binding

B5: mouse anti-human IL-31 mAb from clone 292.118.6.4 (ATCC Patent Deposit Designation PTA-6830) (antibody, mouse IgG1, V domains shown)
VH: B3 VH with D10G, A24V, S30K, L59I, S80Y, L83M, F95Y
VL: DIVMTQSPSSLAMSVGQKVTMICNSSQSLLNSSNQKNYLAWYQQRPGQSPRLLVYFASTGESGVPDRFMGSGSGTDFTLTISNVQAEDLADYFCQQHFSTPYTFGGGTKLEIR
notes: Mouse IgG1; assays used first round clone 292.118.6
[2]
  binding result: no binding
[4]
  IC50 (ng/mL), cell-based neutralization (luciferase), IL-31-CEE at 300 pg/mL: 6.55 ng/mL
  IC50 (pM), cell-based neutralization (luciferase), IL-31-CEE at 300 pg/mL: 43.7 pM
[3]
  binding result: no binding

B6: mouse anti-human IL-31 mAb from clone 292.39.5.3 (antibody, mouse IgG1, V domains shown)
VH: B3 VH with A75V
VL: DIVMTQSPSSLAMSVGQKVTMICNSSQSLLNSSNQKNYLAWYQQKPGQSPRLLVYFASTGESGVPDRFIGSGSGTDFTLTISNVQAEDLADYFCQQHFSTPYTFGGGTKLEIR
notes: Mouse IgG1; assays used first round clone 292.39.5
[2]
  binding result: no binding
[4]
  IC50 (ng/mL), cell-based neutralization (luciferase), IL-31-CEE at 300 pg/mL: 8.63 ng/mL
  IC50 (pM), cell-based neutralization (luciferase), IL-31-CEE at 300 pg/mL: 57.5 pM
[3]
  binding result: no binding

B7: mouse anti-human IL-31 mAb from clone 292.64.6.5.5 (antibody, mouse IgG1, V domains shown)
VH: B3 VH
VL: B5 VL with R45K, V54I, M69I
notes: Mouse IgG1; assays used first round clone 292.64.6
[1]
  EC50: 3.4 ng/mL
[2]
  binding result: no binding
[4]
  IC50 (ng/mL), cell-based neutralization (luciferase), IL-31-CEE at 300 pg/mL: 10.1 ng/mL
  IC50 (pM), cell-based neutralization (luciferase), IL-31-CEE at 300 pg/mL: 67 pM
[3]
  binding result: no binding

B8: mouse anti-human IL-31 mAb from clone 292.12.3.1 (ATCC Patent Deposit Designation PTA-6815) (antibody, mouse IgG1, V domains shown)
VH: QVQLQQSGAELARPGASVNLSCKASGYTLTRYWMQWVKQRPGQGLEWIGAIYPGDGDTRYSQKFKGKATLTADKSSSTAYMQLNNLASEDSAVYYCAFPDGYYAAPYGMDYWGQGTSVTVSS
VL: DIQMTQSPASLSASVGETVTITCRASGNIHNYLAWYQQKQGKSPQLLVYNAKTLADGVPSRFSGSRSETQYSLKINSLQPEDFGSYYCQHFWSTPWTFGGGTKLEIK
notes: Mouse IgG1, kappa; assays used supernatant of first round clone 292.12.3
[2]
  binding result: no binding
[4]
  IC50 (ng/mL), cell-based neutralization (luciferase), IL-31-CEE at 300 pg/mL: 1.2 ng/mL
  IC50 (pM), cell-based neutralization (luciferase), IL-31-CEE at 300 pg/mL: 7.98 pM
[3]
  binding result: no binding

B9: mouse anti-human IL-31 mAb from clone 292.72.3.1 (ATCC Patent Deposit Designation PTA-6816) (antibody, mouse IgG2a, V domains shown)
VH: QVQVQQSGAELARPGASVKLSCKASGYTLTRYWMQWVKQRPGQGLEWIGAIYPRDGDTRYSQKFKGKATLTADKSSTTAYMQLSSLASEDSAVYYCAYPDGSYAAPNGMEYWGQGSSVTVSS
VL: B8 VL with T5S, N28S, K52E, R66G, E68G, N76S, S85T, S93I
notes: Mouse IgG2a; assays used first round clone 292.72.3
[2]
  binding result: no binding
[4]
  IC50 (ng/mL), cell-based neutralization (luciferase), IL-31-CEE at 300 pg/mL: 2 ng/mL
  IC50 (pM), cell-based neutralization (luciferase), IL-31-CEE at 300 pg/mL: 13.3 pM
[3]
  binding result: no binding

B10: mouse anti-human IL-31 mAb from clone 292.84.1.6 (ATCC Patent Deposit Designation PTA-6871) (antibody, V domains shown)
VH: B8 VH with A50T, T69S, S77N, Y95F
VL: B8 VL with K42R
notes: Mouse IgG2a, kappa; Assays used first round clone 292.84.1
[2]
  binding result: no binding
[4]
  IC50 (ng/mL), cell-based neutralization (luciferase), IL-31-CEE at 300 pg/mL: 1.08 ng/mL
  IC50 (pM), cell-based neutralization (luciferase), IL-31-CEE at 300 pg/mL: 7.18 pM
[3]
  binding result: no binding
